Data on 4 molecules can be found in patent publication US20210054043A1 (HADASIT MEDICAL RESEARCH SERVICES AND DEVELOPMENT, published 2021).

B2: Fc-fused ectodomain of SLAMF6^var1 (seSLAMF6_Fc, Creative Biomart) (Fc fusion)
chain: QSSLTPLMVNGILGESVTLPLEFPAGEKVNFITWLFNETSLAFIVPHETKSPEIHVTNPKQGKRLNFTQSYSLQLSNLKMEDTGSYRAQISTKTSAKLSSYTLRILRQLRNIQVTNHSQLFQNMTCELHLTCSVEDADDNVSFRWEALGNTLSSQPNLTVSWDPRISSEQDYTCIAENAVSNLSFSVSAQKLCEDVKIQYTDTKM
notes: Bought reagent, coated on the plate at 1 ug/ml; Only the ectodomain stood in the assay; also called full length seSLAMF6-Fc; SLAMF6^var1 ectodomain (Fc-conjugated); not shown: Fc portion

What all share (assay): ELISA, seSLAMF6-Fc coated on the plate, anti-His-HRP detection
Background: In an ELISA, binding on a coated surface is turned into a signal by an enzyme label.

In assay [1] the target is B2. The procedure:
(§1) FIG. 11. seSLAMF6-V3 binding to full length seSLAMF6-Fc using ELISA. seSLAMF6-Fc was pre-coated to MaxiSorb plate. Soluble ectodomains from various SLAM family members (seSLAMF6, seSLAMF6-V3, seSLAMF1, seSLAMF7 and seSLAMF8, all containing 6-Histidine tags) were then added. An anti- Histidine antibody was used for detection.
(§2) MaxiSorb plates were pre-coated overnight with an Fc-fused ectodomain of SLAMF6^var1 (seSLAMF6_Fc, Creative Biomart, at 1 μg/ml and 4° C.). On the next day, the plate was washed and blocked using blocking buffer containing 1% BSA in PBSX1. Next, the plate was incubated for two hours with different concentrations of isolated ectodomains (containing 6-histidine tags) from SLAMF6^var1 (Prospec, seSLAMF6) or SLAMF6^var3 (Novoprotein/Bonopus, seSLAMF6-V3), or from SLAMF1, SLAMF7 or SLAMF8 (seSLAMF1, seSLAMF7 and seSLAMF8, respectively). The amount of receptor-bound ectodomain polypeptides was detected using horseradish peroxidase (HRP)-conjugated antibodies directed to the histidine tag (anti-HIS Abs) and quantified using an ELISA reader.

For assay [2], the target named is T1, isolated ectodomain of SLAMF1 containing a 6-histidine tag (seSLAMF1) (UniProt Q13291 21-237, limits assumed).
T1 construct: extracellular domain; not shown: 6-histidine tag
T1 sequence (looked up): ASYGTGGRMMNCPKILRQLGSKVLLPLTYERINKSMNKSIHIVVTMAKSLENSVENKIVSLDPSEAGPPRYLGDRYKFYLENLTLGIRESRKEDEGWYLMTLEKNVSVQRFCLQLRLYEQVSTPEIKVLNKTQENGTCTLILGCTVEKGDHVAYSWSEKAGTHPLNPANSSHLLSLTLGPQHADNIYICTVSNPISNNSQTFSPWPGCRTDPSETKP
The procedure: as §1, §2

Assay [3] addresses T2, isolated ectodomain of SLAMF8 containing a 6-histidine tag (seSLAMF8) (UniProt Q9P0V8 23-233, limits assumed).
T2 construct: extracellular domain; not shown: 6-histidine tag
The procedure:
as §1, §2

T2 sequence (Q9P0V8 23-233 limits assumed): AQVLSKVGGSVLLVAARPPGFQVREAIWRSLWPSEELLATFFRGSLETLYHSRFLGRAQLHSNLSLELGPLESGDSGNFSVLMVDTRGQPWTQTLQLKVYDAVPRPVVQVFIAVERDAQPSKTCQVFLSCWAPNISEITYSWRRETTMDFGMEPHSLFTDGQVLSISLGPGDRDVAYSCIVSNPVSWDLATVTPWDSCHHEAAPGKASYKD

B1: isolated ectodomain of SLAMF6^var1 containing a 6-histidine tag (Prospec, seSLAMF6) (receptor)
chain: QSSLTPLMVNGILGESVTLPLEFPAGEKVNFITWLFNETSLAFIVPHETKSPEIHVTNPKQGKRLNFTQSYSLQLSNLKMEDTGSYRAQISTKTSAKLSSYTLRILRQLRNIQVTNHSQLFQNMTCELHLTCSVEDADDNVSFRWEALGNTLSSQPNLTVSWDPRISSEQDYTCIAENAVSNLSFSVSAQKLCEDVKIQYTDTKM
notes: Bought reagent; Only the ectodomain stood in the assay; also called isolated SLAMF6^var1 ectodomain; not shown: 6-histidine tag
Consider B1, for which the binding result in assay [1] was “binds”. On to B2, for which the binding result in assay [2] and in assay [3] was “no binding” in each case.

B3: isolated ectodomain of SLAMF7 containing a 6-histidine tag (seSLAMF7) (receptor, UniProt Q9NQ25 23-226, looked up)
chain: SGPVKELVGSVGGAVTFPLKSKVKQVDSIVWTFNTTPLVTIQPEGGTIIVTQNRNRERVDFPDGGYSLKLSKLKKNDSGIYYVGIYSSSLQQPSTQEYVLHVYEHLSKPKVTMGLQSNKNGTCVTNLTCCMEHGEEDVIYTWKALGQAANESHNGSILPISWRWGESDMTFICVARNPVSRNFSSPILARKLCEGAADDPDSSM
notes: extracellular domain; not shown: 6-histidine tag
Turning to B3, the binding result in assay [1] is listed as “no binding”.

B4: isolated SLAMF6^var3 ectodomain (seSLAMF6^var3), human, C-terminal 6-histidine tag (receptor)
chain: GNVVSVPHETKSPEIHVTNPKQGKRLNFTQSYSLQLSNLKMEDTGSYRAQISTKTSAKLSSYTLRILRQLRNIQVTNHSQLFQNMTCELHLTCSVEDADDNVSFRWEALGNTLSSQPNLTVSWDPRISSEQDYTCIAENAVSNLSFSVSAQKLCEDVKIQYTDTKMGSHHHHHH
notes: Expressed in HEK293 cells and purified on a Ni column (Novoprotein/BonOpus); The N-terminus is heterogeneous; also called seSLAMF6-V3; soluble ectodomain of SLAMF6^var3
B4: the binding result in assay [1] is given as “binds”.
